Data taken from the DeepSol protein solubility set.

Test: soluble on expression in E. coli; label from the status in PepcDB or PDB records

Sequence: GANDRYTETKRIVDSHCLHTICSSGRCPNMGECWGKGTATFMIGGDICTRSCKFCNTQTGRPHPLDANEPTHVAESIALMKLDHAVVTSVDRDDLPDLGAGHWAHTIREIKRLNPQTTIEVLIPDFQGRMELVDLVIEANPDIISHNMETVRRISPLVRSAANYDTSLQVIGHIARSGTKSKSGIMVGLGETPQEVETIMDDLLAVGCQILTIGQYLQPTHRHYPVAEYVTPQQFATYKTIGLEKGFSIVESAPLVRSSYHAEKHIR
- soluble on expression in E. coli: not soluble

Sequence: MGSDKIHHHHHHMNGGKPGVERDRREALLALAAALRPELHRYCARLMGSVIDGEDVVQDTFARAFVALDELCAVPQLRPWLFRIAHNRALDLLRSRATRVAEPIEAALEIVDDSKADAVETLMRKEAIETAVSRFAELPVVQRSVIILKDVLDEPLAEIAALLGISVDAVKAHLSRGRARLREINARTDPFPDARIASANVVRYINLFNQRDWDGLRALLAEDVRLQQSMHPPRSGAADVGMFFTIYAKSEGLWLKPAWVEGREVIAVFEHRAAPKPTHFMWLEWREGRISFIRDYRYVGYVADDARLVLASDVRSSGHGTKL
- soluble on expression in E. coli: not soluble

Sequence: VSSQKTSSLPKYTPKVNSSINNYIRKKNMKAPRIEEDYTSYFPKYGYRNGVGRPEGIVVHDTANDNSTIDGEIAFMKRNYTNAFVHAFVDGNRIIETAPTDYLSWGAGPYGNQRFINVEIVHTHDYDSFARSMNNYADYAATQLQYYNLKPDSAENDGRGTVWTHAAISNFLGGTDHADPHQYLRSHNYSYAELYDLIYEKYLIKTKQVAPWG
- soluble on expression in E. coli: soluble

Sequence: MGHHHHHHHHHHSSGHIEGRHMANPLAGKPFYVDPASAAMVAARNANPPNAELTSVANTPQSYWLDQAFPPATVGGTVARYTGAAQAAGAMPVLTLYGIPHRDCGSYASGGFATGTDYRGWIDAVASGLGSSPATIIVEPDALAMADCLSPDQRQERFDLVRYAVDTLTRDPAAAVYVDAGHSRWLSAEAMAARLNDVGVGRARGFSLNVSNFYTTDEEIGYGEAISGLTNGSHYVIDTSRNGAGPAPDAPLNWCNPSGRALGAPPTTATAGAHADAYLWIKRPGESDGTCGRGEPQAGRFVSQYAIDLAHNAGQ
- soluble on expression in E. coli: soluble

Sequence: MAHHHHHHMSIYIQLTHDLSGTVTAVTIGDWILGILKEKNIQEYEVFFKKFLHIYQKQDKDSECNNRSEIFSLLLSASDFVFETLVETKKNNKIKVIIDNKESVKSYNEFYKEVEEYFVILISILQLEFKSVEELNNATNNFIKAIKNYNEFPELRLKILQLLYNSFNVNFSFRFPTFIAILQFCSQNNIFHNMLPYIKYIDDWIKEWNISTREKRHIYLIISQELKKLKKYEESYEHLKKHIYYYDNEHKDILNHPNSINASIELIVDAININNNIYFHEIINLHAIQNLQFIPQHQPLFDLLLIFYKYTINEFLVFKNKHGSDFFNKYNIDIQTCESKIYLLSIISLFNDHKVQNIQFISKQLNISVVQIENILVAAIGSGVIDAKIDQINQTVHMKTTILRNFDDENWKQLNNQITKYINNVQKILELTKHANK
- soluble on expression in E. coli: not soluble

Sequence: MGHHHHHHSHMNKDLLRRVLVLMNSKHTFLALCALRFMRRIIGLKDEFYNRYITKGNLFEPVINALLDNGTRYNLLNSAVIELFEFIRVEDIKSLTAHIVENFYKALESIEYVQTFKGLKTKYEQEKDRQNQKLNSVPSILRSNRFRRDAKALEEDEEMWFNEDEEEEGKAVVAPVEKPKPEDDFPDNYEKFMETKKAKESEDKENLPKRTSPGGFKFTFSHSASAANGTNSKSVVAQIPPATSNGSSSKTTNLPTSVTATKGSLVGLVDYPDDEEEDEEEESSPRKRPRLGS
- soluble on expression in E. coli: not soluble

Sequence: MGSDKIHHHHHHMFQYFPTNYVWSLSAMIALTHGGQIGEVDQMCAPLVDAARAGNDPGTLAFFNAWKSGADKLAELAEEDKSGGRLLSAGEKLGRAALYYIIAERMQAHDFDGRLALYKHSLDVFLEGVRLARENCERIEIPYQDRHISGLYVRAVGVQGRAPVVVVMNGLDSTKEMLYRSCITSYLSRRGVAVLLVDQPGTGEALRLQKLHAIPQTEIWASKIVDYLQARTDIDPVRIGALGVSLGGYYAPRAVAFEPRFAAGAVWGANHDWREVQKRRLAREGENPVPHYWKHVEWVFGASDLDDFMQCAEAMHLNGVLDRIKVPFLVTHGENDRQIPVQYAHQTYEQLANSPRRELKIFTAREGGVEHSSLDNPTNAGSYIADWLAEQLHGTTA
- soluble on expression in E. coli: not soluble

Sequence: MAHHHHHHMSGQAGKQVAPVKCKGWAVEKPALKWSTDAVRLSDVTVPAPDPTQIRVRVYAASINPVDWKRVMFPASGSGPGVAGSALKGFKGMHHKPPNYPYPYVVGVDGAGEVESVGRKVTGLKAGDRVMFHSSLTNAHGGSLCEYAVMEESVAVPIPADGARPFSYEEAAAIPCATWTAYVALFDKLRIEPGRSIFVDGASGAVGSCAVQLAHHMGLYVFASCSPSNADYVRSIGADQVLNYHDGIEMVDQILDATEGYGVDYYLAVTNTQDAESFTDALRFGGAVCLLSGVLIPNSNVLFRRQLSVHYVFLNGLHGHPLTRPQLRYIGDQVAKLYQSGAFRLDVEVLPFAEAAKALDRSATGNVNHKKLIVQVASP
- soluble on expression in E. coli: soluble

Sequence: MKYQLTALEARVIGCLLEKQVTTPEQYPLSVNGVVTACNQKTNREPVMNLSESEVQEQLDNLVKRHYLRTVSGFGNRVTKYEQRFCNSEFGDLKLSAAEVALITTLLLRGAQTPGELRSRAARMYEFSDMAEVESTLEQLANREDGPFVVRLAREPGKRENRYMHLFSGEVEDQPAVTDMSNAVDGDLQARVEALEIEVAELKQRLDSLLAHLGD
- soluble on expression in E. coli: soluble

Sequence: MGSDKIHHHHHHMEWEVFEYRTKGIMAEIEAGRLKIVSSYVDKSFSARVILKGRVGFASASTRDEALSLAEKIARISEDELEDFPNEKPASVKGIYDKRVEEADSELIMEEFERLRSAVEKANIASATIEHAVEEVRITNSFGLDSREKSTSSSMIVEAVFEGGSAYEVCGSRSIELDIEGAAKKAEELAVDSAKAIKIEGGTYDVILQPIAVHQLLSNTLYPSLSAENVEKGRSVIRLGDEFGRITVIDDPTVEGGLMSCGFDDEGVSARKTFLIDNGVVRSYYTDWKHSKKYGVTGNGFRLEESSFPAPMVSNVVLEVDDADDDNCLTIHSLIGSHTANPVSGDFSLECNNAYFGEKAVKGAMIYGNVFELLKKVEGGLGELRQIENTVTKSLRFRSVRVI
- soluble on expression in E. coli: not soluble

Sequence: MHGRLKVKTSEEQAEAKRLEREQKLKLYQSATQAVFQKRQAGELDESVLELTSQILGANPDFATLWNCRREVLQHLETEKSPEESAALVKAELGFLESCLRVNPKSYGTWHHRCWLLSRLPEPNWARELELCARFLEADERNFHCWDYRRFVAAQAAVAPAEELAFTDSLITRNFSNYSSWHYRSCLLPQLHPQPDSGPQGRLPENVLLKELELVQNAFFTDPNDQSAWFYHRWLLGRAEPHDVLCCVHVSREEACLSVCFSRPLTVGSRMGTLLLMVDEAPLSVEWRTPDGRNRPSHVWLCDLPAASLNDQLPQHTFRVIWTGSDSQKECVLLKDRPECWCRDSATDEQLFRCELSVEKSTVLQSELESCKELQELEPENKWCLLTIILLMRALDPLLYEKETLQYFSTLKAVDPMRAAYLDDLRSKFLLENSVLKMEYADVRVLHLAHKDLTVLCHLEQLLLVTHLDLSHNRLRALPPALAALRCLEVLQASDNALENVDGVANLPRLQELLLCNNRLQQSAAIQPLVSCPRLVLLNLQGNSLCQEEGIQERLAEMLPSVSSILT
- soluble on expression in E. coli: soluble

Sequence: SLVYDSNNNLIADLGAEKRESISSDSIPMKLVNAVTSIEDHRFFKHRGVDIYRIIGAAWSNLLHKSTQGGSTLDQQLIKLAYFSTKESDQTLKRKAQEVWLSLQMEKKYTKEEILTFYVNKVYMGNGNYGMRTAAKSYYGKDLKDLSIAQLATLAGIPQAPTQYDPYAQP
- soluble on expression in E. coli: not soluble

Sequence: MTESTTSSPHDAVFKTFIFTPETARDFLEIHLPEPLRKLCNLQTLRLEPTSFIEKSLRAYYSDVLWSVETSDGDGYIYCVIEHQSSAEKNMAFRPMRYATAAMQSHLDKGYDRVPLVVPLLFYHGETSPYPYSLNWLDEFDDPQLARQLYTEAFPLVDITIVPDDEIMQHRRIALLELIQKHIRDHDLIGMVDRITTLLVRGFTNDSQLQTLFNYLLQCGDTSRFTRFIQEIAERSPLQKERLMTIAERLRQEGHQIGWQEGKLVGLQQGKLEGLQEGMHEQAIKIALRMLEQGIDRDQVLAATQLSEADLAANNH
- soluble on expression in E. coli: not soluble

Sequence: MMNEKILIVDDQYGIRILLNEVFNKEGYQTFQAANGLQALDIVTKERPDLVLLDMKIPGMDGIEILKRMKVIDENIRVIIMTAYGELDMIQESKELGALTHFAKPFDIDEIRDAVKKYLPLKSN
- soluble on expression in E. coli: soluble

Sequence: MGSDKIHHHHHHMPQDTISVSLLDSRIQASRPNYYNPLLVYKTAKIKVNKDAASYKILNLTVNNYEKQIETLEKENGNGEDQFGKEKTLLKTAMSNFFNSSEESLKSADLFIYKDKPEELKNYLKVHRHTFVVLINTEGDASDDGLKIYKDDYNKFKKPSTFFVFSTKEQEIKELFKDKGNTEKERNIAVYSNNKDNLHLKFISQYLHQASIFHAVNPYGMPLAATPLVDDTVIGKLRTAKINFYSLLNETGLDGVPAFKEGVDLAGGAIDEQFTYHYIKNEAIIELIRIWNKNNRQNSKLSALQLSGARDNAYTSAIECLLKRFVDRGLIIEYKNLRLTLSPTPQLKLELSVNITYNFSINAVALVITTQDIVDYQNSLSA
- soluble on expression in E. coli: not soluble

Sequence: MGSDKIHHHHHHMTAIANRYEFVLLFDVENGNPNGDPDAGNMPRIDPETGHGLVTDVCLKRKIRNHVALTKEGAERFNIYIQEKAILNETHERAYTACDLKPEPKKLPKKVEDAKRVTDWMCTNFYDIRTFGAVMTTEVNCGQVRGPVQMAFARSVEPVVPQEVSITRMAVTTKAEAEKQQGDNRTMGRKHIVPYGLYVAHGFISAPLAEKTGFSDEDLTLFWDALVNMFEHDRSAARGLMSSRKLIVFKHQNRLGNAPAHKLFDLVKVSRAEGSSGPARSFADYAVTVGQAPEGVEVKEML
- soluble on expression in E. coli: not soluble

Sequence: MDFTIPLQLQSNTPIYLQIYEYIKAEIIQGTISVGTRLPSHRNLASQLNISRITVESAYQQLLAEGYAESKPKRGIFVANFDIDIIPNKKRNAAKKTNNLIEEKFEYDCSQGLIDQNAFPITNWKRALQESILIYENALFAKEDPQGEFALREHISTYLYHSRGVHSSPDQIVIGAGTQPLLWLLLQLLGPTKEYGIENPGFHRIHAIIKSCDRQIHPIPLDEKGIDISSLYNTNSNVAYVTPSHQFPLGIIMPLSRRLELLKWANDCNGYIIEDDYDGEFRYAGKPIPSLQSLDSNERVIYMGTFSKSFLPSLRMGYVVLPPHLLKTYQELHGIFKQTVATIQQLAFANFIQSGNWERHLNRSRTLYKRKHHTLVKSIMKEMGANVQILGEQSGLHIVLCVNNSMNENELIESAKKQSVKLYPLSPYDFVNDLRKESYVLLGFGSIPENKIETLATLLKDAWFPSCKETC
- soluble on expression in E. coli: not soluble

Sequence: MFSTGSGELCDSSAARAGGSMIHPILAKVTQNLTERSREARAAFIARSQAQEKAGKGRTSLSCGNLAHAVAASCSTEKKAILDFTRSNVAIVTSYNDMLSAHQPYQHYPDRIKMVLAEYGHTAQVAGGVPAMCDGVTQGQPGMDMSLFSRDLIAQATALSLSHNVFDATLLLGICDKIAPGQLMGALSYAHLPTAFMPAGLMATGISNEEKVDIRQKYAAGEVGKDALLNMECQAYHAPGTCTFYGTANTNQLVFEAMGLMLPGSAFVHPHSALRQALNDDATVKIASMTQGSAQYRPLYQVVTEKSLLNGIVALLASGGSTNHTIHMLAVARAAGILLTWQDISDLSDVVPLLAKVYPNGPADMNAFQQAGGVPALMKRLHESKLLHSDVTPVFGEFRDQLTLPELVDGELCWKACEGTRDAQVIAASGECFQTTGGTKMLNGNLGRAVIKVSAVKEEQRIIEAPAVVFQCQHQVEAAYQRGELNKDCIVVVTHNGPAANGMPELHKLMPILGNVQKAGFKVALVTDGRLSGASGKIPSAIHVSPEAVRGGAIGLVRDGDLLRLDCTTGTLENLTDMSHRQALALDTERDQQMWGRELFKVMRQAVSSAEQGASFIV
- soluble on expression in E. coli: not soluble
